Values of other authors in article PMC7019049.
pKd: −log10 of the molar value.

Tests used:
[1] = biological target: MIG6 peptide (Homo sapiens) (UniProt Q9UJM3)
pepJIP1 (Homo sapiens) = pepJIP1 (Homo sapiens) (UniProt Q9UQF2)
Chain of UniProt Q9UQF2 (Q9UQF2 whole entry): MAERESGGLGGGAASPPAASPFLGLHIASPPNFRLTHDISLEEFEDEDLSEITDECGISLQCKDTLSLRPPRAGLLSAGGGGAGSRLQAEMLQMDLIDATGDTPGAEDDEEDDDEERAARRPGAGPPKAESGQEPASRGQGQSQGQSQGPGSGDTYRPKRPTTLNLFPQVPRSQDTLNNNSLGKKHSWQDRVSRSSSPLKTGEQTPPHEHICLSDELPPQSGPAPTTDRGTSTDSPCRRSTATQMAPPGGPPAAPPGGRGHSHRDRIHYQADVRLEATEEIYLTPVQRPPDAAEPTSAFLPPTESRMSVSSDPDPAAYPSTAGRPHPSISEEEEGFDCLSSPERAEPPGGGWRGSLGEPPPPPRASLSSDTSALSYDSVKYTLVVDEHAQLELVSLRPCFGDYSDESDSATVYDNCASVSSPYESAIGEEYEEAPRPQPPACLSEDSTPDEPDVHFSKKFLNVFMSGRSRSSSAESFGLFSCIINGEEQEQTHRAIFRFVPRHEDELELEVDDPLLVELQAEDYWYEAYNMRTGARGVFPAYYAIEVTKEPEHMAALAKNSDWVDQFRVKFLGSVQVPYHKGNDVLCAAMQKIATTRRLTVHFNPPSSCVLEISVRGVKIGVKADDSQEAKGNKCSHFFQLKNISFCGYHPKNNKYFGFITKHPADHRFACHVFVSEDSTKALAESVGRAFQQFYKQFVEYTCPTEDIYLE

Chain of UniProt Q9UJM3 (Q9UJM3 2-462): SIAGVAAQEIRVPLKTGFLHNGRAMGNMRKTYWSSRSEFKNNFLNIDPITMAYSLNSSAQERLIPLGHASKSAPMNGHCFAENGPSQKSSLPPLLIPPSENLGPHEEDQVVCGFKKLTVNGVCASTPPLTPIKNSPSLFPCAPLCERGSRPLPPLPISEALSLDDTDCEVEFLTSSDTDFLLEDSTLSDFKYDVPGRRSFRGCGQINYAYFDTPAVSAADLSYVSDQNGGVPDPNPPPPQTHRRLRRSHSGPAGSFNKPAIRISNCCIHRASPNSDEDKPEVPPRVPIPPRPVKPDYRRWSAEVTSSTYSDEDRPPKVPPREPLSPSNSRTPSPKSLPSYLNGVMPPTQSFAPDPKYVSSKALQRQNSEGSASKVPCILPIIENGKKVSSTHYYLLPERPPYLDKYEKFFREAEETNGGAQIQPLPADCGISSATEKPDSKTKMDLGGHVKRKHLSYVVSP

pKd [1] | pKd (pepJIP1 (Homo sapiens)) | Substance
4.89 | – | EGFR kinase domain (from UniProt P00533)
– | 6.38 | MAPK8 (JNK1) (from UniProt P45983)
